“Also recorded” adds a separate entry of the source.
What was measured:
[1] = molecular target: T1, soluble recombinant human CD39 protein (Homo sapiens, UniProt P49961); assay: Inhibition of the enzymatic (ATPase) activity of soluble CD39, Cell Titer Glo; format: biochemical
T1 construct: made in house; host or cells: CHO cells
T1 sequence (P49961 with tags, fused parts or gaps): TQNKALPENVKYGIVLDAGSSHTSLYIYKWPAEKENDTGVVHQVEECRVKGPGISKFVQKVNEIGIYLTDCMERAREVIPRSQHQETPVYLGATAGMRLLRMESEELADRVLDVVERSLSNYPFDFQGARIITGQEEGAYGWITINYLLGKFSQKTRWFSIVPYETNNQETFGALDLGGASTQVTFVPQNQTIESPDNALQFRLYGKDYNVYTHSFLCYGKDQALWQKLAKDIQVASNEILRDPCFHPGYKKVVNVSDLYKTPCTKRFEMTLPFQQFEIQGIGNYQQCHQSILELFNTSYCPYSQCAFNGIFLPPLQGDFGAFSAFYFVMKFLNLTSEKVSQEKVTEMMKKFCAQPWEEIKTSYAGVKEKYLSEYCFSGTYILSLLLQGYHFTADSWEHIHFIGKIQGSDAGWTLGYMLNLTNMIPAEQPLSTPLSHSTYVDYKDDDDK
Description: The ability of an antibody to inhibit soluble recombinant human CD39 protein can be tested by detecting ATP after incubating test antibody with soluble CD39 protein (e.g., the CD39 protein having the amino acid sequence of SEQ ID NO: 5, as produced in Example 1, optionally further comprising a purification tag or other functional or non-functional non-CD39-derived amino acid sequence). See, e.g., Example 1. Briefly, ATP can be quantified using the Cell Titer Glo™ (Promega), in an assay in which dose ranges of test antibody are incubated with soluble recombinant human CD39 protein described in Example 1, for 1 hour at 37° C. 20 μM ATP are added to the plates for 30 additional minutes at 37° C. before addition of CTG reagent. Emitted light is quantified using an Enspire™ luminometer after a short incubation period of 5 min in the dark.
The inhibition by antibodies of the enzymatic activity of soluble CD39 protein produced was evaluated using Cell Titer Glo™ (Promega, reference G7571) that allows assessment of ATP hydrolysis through use of a reagent that generates a luminescent signal proportional to the amount of ATP present. In this way, inhibition of the soluble-CD39-mediated ATP hydrolysis can be assessed. Briefly, dose ranges of anti-CD39 antibodies from 100 μg/ml to 6×10^−3 μg/ml were incubated with 400 ng/ml of soluble recombinant human CD39 protein having the amino acid sequence described in the Methods section (SEQ ID NO: 54), for 1h at 37° C. 20 μM ATP was added to the plates for 30 additional minutes at 37° C. before addition of CTG (Cell Titer Glo) reagent. Emitted light was quantified using an Enspire™ luminometer after a short incubation period of 5 min in the dark. Anti-CD39 antibody efficacy was determined by comparing emitted light in presence of antibody with ATP alone (maximal light emission) and ATP together with soluble CD39 protein (minimal light emission).

[2] = molecular target: T2, CHO cells expressing murine CD39 (CHO-moCD39) (Mus musculus, UniProt P55772); assay: Antibody titration on CHO-moCD39 cells by flow cytometry; format: binding
T2 construct: expressed in transfected cells; host or cells: CHO cells
T2 sequence (P55772 1-510): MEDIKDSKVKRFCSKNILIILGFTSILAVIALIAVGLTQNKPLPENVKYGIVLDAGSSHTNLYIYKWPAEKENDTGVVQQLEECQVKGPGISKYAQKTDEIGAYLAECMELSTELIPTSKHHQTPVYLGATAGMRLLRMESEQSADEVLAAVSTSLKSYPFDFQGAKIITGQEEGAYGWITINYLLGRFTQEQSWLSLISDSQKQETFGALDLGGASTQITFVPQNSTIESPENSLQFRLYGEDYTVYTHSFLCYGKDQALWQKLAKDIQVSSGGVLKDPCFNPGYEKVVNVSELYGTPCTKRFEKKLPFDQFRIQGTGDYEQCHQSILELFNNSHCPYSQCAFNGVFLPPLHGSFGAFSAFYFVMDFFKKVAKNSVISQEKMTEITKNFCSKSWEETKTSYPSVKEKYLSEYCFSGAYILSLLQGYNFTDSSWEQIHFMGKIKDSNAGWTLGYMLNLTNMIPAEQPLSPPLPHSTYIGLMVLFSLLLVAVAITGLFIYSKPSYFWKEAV
Description: Cells were incubated with various concentration of unlabeled anti-CD39 antibody from 30 μg/ml to 5×10^−4 μg/ml, for 30 minutes at 4° C. After washes, cells were incubated with Goat anti-mouse H+L labeled secondary antibody for 30 min at 4° C.

[3] = molecular target: T3, Human CD39-L3 (NTPDase3, ENTPD3) (Homo sapiens, UniProt O75355); assay: ELISA titration on CD39-L3; format: binding
T3 sequence (O75355 1-529): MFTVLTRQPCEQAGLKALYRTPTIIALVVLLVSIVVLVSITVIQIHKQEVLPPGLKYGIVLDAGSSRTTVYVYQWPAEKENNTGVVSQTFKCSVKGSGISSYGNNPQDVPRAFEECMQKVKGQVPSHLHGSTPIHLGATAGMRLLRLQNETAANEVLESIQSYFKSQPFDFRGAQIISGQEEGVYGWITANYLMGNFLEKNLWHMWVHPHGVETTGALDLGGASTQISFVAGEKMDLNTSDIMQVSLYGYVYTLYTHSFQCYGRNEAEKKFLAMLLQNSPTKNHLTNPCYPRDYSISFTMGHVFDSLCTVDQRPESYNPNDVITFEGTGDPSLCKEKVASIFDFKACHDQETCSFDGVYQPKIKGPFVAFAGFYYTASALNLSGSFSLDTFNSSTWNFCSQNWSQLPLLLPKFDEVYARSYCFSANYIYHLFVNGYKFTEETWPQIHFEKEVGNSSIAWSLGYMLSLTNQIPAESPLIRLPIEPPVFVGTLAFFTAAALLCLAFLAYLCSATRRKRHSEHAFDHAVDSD
Description: Wells were washed in TBS Tween 20, and further saturated 2H at RT in TBS Blocking buffer. Dose range concentration of primary antibody was incubated in TBS blocking buffer for 2h at RT. Wells were washed in TBS Tween 20. […] Optical density was measured on Enspire™ at OD=450.

maximum inhibition achieved, soluble CD39 protein [1]: 74.9% | inhibition of ATPase activity of soluble CD39 when antibody is spiked into negative hybridoma supernatants ([1]; added to hybridoma supernatant): did not restore | inhibition of ATPase activity of soluble CD39 after purification from the negative supernatant ([1]; purified with Protein A coated beads): again able to inhibit | binding to cells expressing murine CD39 [2]: not to cells expressing murine CD39 | binding to CD39-L3 in ELISA [3]: not to any of the human isoforms
B1: I-394: anti-CD39 antibody, VH SEQ ID NO: 6, VL SEQ ID NO: 7; heavy/light chains SEQ ID NOS: 52 and 53 (antibody)
heavy: EVQLQQSGPELVKPGASVKMSCKASGYTFTDYNMHWVKQSHGRTLEWIGYIVPLNGGSTFNQKFKGRATLTVNTSSRTAYMELRSLTSEDSAAYYCARGGTRFAYWGQGTLVTVSAASTKGPSVFPLAPSSKSTSGGTAALGCLVKDYFPEPVTVSWNSGALTSGVHTFPAVLQSSGLYSLSSVVTVPSSSLGTQTYICNVNHKPSNTKVDKRVEPKSCDKTHTCPPCPAPEAEGAPSVFLFPPKPKDTLMISRTPEVTCVVVDVSHEDPEVKFNWYVDGVEVHNAKTKPREEQYNSTYRVVSVLTVLHQDWLNGKEYKCKVSNKALPSSIEKTISKAKGQPREPQVYTLPPSREEMTKNQVSLTCLVKGFYPSDIAVEWESNGQPENNYKTTPPVLDSDGSFFLYSKLTVDKSRWQQGNVFSCSVMHEALHNHYTQKSLSLSPGK
light: DIVLTQSPASLAVSLGQRATISCRASESVDNFGVSFMYWFQQKPGQPPNLLIYGASNQGSGVPARFRGSGSGTDFSLNIHPMEADDTAMYFCQQTKEVPYTFGGGTKLEIKRTVAAPSVFIFPPSDEQLKSGTASVVCLLNNFYPREAKVQWKVDNALQSGNSQESVTEQDSKDSTYSLSSTLTLSKADYEKHKVYACEVTHQGLSSPVTKSFNRGEC
modifications: Chimeric homo sapiens mus musculus
inhibition of the enzymatic (ATPase) activity of soluble CD39 protein ([1]; 400 ng/ml soluble CD39, 20 μM ATP): strong inhibition; also recorded: inhibits; also recorded: highly potent
